IntAct's records for PubMed 26601939

B1: Syndecan-2 (Rattus norvegicus (Rat)), P34900 (parent)
chain: MQRAWILLTLGLMACVSAETRAELTSDKDMYLDSSSIEEASGLYPIDDDDYSSASGSGAYEDKGSPDLTTSQLIPRISLTSAAPEVETMTLKTQSITPTQTESPEETDKKEFEISEAEEKQDPAVKSTDVYTEKHSDNLFKRTEVLAAVIAGGVIGFLFAIFLILLLVYRMRKKDEGSYDLGERKPSSAAYQKAPTKEFYA
B2: Syndecan-4 (Rattus norvegicus (Rat)), P34901 (parent)
chain: MAPVCLFAPLLLLLLGGFPVAPGESIRETEVIDPQDLLEGRYFSGALPDDEDAGGLEQDSDFELSGSGDLDDTEEPRTFPEVISPLVPLDNHIPENAQPGIRVPSEPKELEENEVIPKRVPSDVGDDDVSNKVSMSSTSQGSNIFERTEVLAALIVGGVVGILFAVFLILLLVYRMKKKDEGSYDLGKKPIYKKAPTNEFYA
B3: Syndecan-2 (Rattus norvegicus (Rat)), P34900 (parent)
chain: B1 chain
partner: B2 chain
B4: Syndecan-1 (Rattus norvegicus (Rat)), P26260 (parent)
chain: MRRAALWLWLCALALRLQPALPQIVTANVPPEDQDGSGDDSDNFSGSGTGALPDMTLSRQTPSTWKDVWLLTATPTAPEPTSRDTEATLTSILPAGEKPEEGEPVAHVEAEPDFTARDKEKEATTRPRETTQLPVTQQASTAARATTAQASVTSHPHGDVQPGLHETLAPTAPGQPDHQPPSVEDGGTSVIKEVVEDETTNQLPAGEGSGEQDFTFETSGENTAVAGVEPDLRNQSPVDEGATGASQGLLDRKEVLGGVIAGGLVGLIFAVCLVAFMLYRMKKKDEGSYSLEEPKQANGGAYQKPTKQEEFYA
partner: B1 chain
B5: Syndecan-4 (Rattus norvegicus (Rat)), P34901 (parent)
chain: B2 chain
partner: B4 chain
B6: Syndecan-2 (Rattus norvegicus (Rat)), P34900 (parent)
chain: B1 chain
partner: B4 chain
B7: Syndecan-4 (Rattus norvegicus (Rat)), P34901 (parent)
chain: B2 chain
partner: B1 chain

Variants of: B1
Details: with sdc3_rat Sdc3, P33671
sdc3_rat Sdc3, P33671, sequence (P33671 whole entry): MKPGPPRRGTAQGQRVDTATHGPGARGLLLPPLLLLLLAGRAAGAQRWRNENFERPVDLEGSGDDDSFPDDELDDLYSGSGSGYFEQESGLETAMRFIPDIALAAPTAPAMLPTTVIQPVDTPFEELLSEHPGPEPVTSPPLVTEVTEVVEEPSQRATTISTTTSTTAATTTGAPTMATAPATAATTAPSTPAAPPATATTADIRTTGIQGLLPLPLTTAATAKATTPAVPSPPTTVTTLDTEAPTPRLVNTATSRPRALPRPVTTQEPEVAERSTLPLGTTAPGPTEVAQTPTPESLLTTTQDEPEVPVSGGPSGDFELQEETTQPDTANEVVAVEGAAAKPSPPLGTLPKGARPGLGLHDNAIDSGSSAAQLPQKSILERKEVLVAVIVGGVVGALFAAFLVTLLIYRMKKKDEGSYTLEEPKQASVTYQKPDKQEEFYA

effect of a mutation on the interaction | Variant
decreasing interaction strength | MQRAWILLTLGLMACVSAETRAELTSDKDMYLDSSSIEEASGLYPIDDDDYSSASGSGAYEDKGSPDLTTSQLIPRISLTSAAPEVETMTLKTQSITPTQTESPEETDKKEFEISEAEEKQDPAVKSTDVYTEKHSDNLFKRTEVLAAVIAGGVIGFLYAIFLILLLVYRMRKKDEGSYDLGERKPSSAAYQKAPTKEFYA [F159Y]

Variants of: B2
Details: with sdc3_rat Sdc3, P33671

effect of a mutation on the interaction | Variant
decreasing interaction strength | MAPVCLFAPLLLLLLGGFPVAPGESIRETEVIDPQDLLEGRYFSGALPDDEDAGGLEQDSDFELSGSGDLDDTEEPRTFPEVISPLVPLDNHIPENAQPGIRVPSEPKELEENEVIPKRVPSDVGDDDVSNKVSMSSTSQGSNIFERTEVLAALIVGGVVGILYAVFLILLLVYRMKKKDEGSYDLGKKPIYKKAPTNEFYA [F164Y]

Variants of: B3
Details: with sdc4_rat Sdc4, P34901

effect of a mutation on the interaction | Variant
disrupting interaction strength | MQRAWILLTLGLMACVSAETRAELTSDKDMYLDSSSIEEASGLYPIDDDDYSSASGSGAYEDKGSPDLTTSQLIPRISLTSAAPEVETMTLKTQSITPTQTESPEETDKKEFEISEAEEKQDPAVKSTDVYTEKHSDNLFKRTEVLAAVIAGGVIGYLFAIFLILLLVYRMRKKDEGSYDLGERKPSSAAYQKAPTKEFYA [F157Y]
decreasing interaction strength | MQRAWILLTLGLMACVSAETRAELTSDKDMYLDSSSIEEASGLYPIDDDDYSSASGSGAYEDKGSPDLTTSQLIPRISLTSAAPEVETMTLKTQSITPTQTESPEETDKKEFEISEAEEKQDPAVKSTDVYTEKHSDNLFKRTEVLAAVIAGGVIGFLYAIFLILLLVYRMRKKDEGSYDLGERKPSSAAYQKAPTKEFYA [F159Y]
with no effect | MQRAWILLTLGLMACVSAETRAELTSDKDMYLDSSSIEEASGLYPIDDDDYSSASGSGAYEDKGSPDLTTSQLIPRISLTSAAPEVETMTLKTQSITPTQTESPEETDKKEFEISEAEEKQDPAVKSTDVYTEKHSDNLFKRTEVLAAVIAGGVIGFLFAIYLILLLVYRMRKKDEGSYDLGERKPSSAAYQKAPTKEFYA [F162Y]

Variants of: B3
Details: with sdc4_rat Sdc4, P34901
Remark: another data set of the same source

effect of a mutation on the interaction | Variant
decreasing interaction | MQRAWILLTLGLMACVSAETRAELTSDKDMYLDSSSIEEASGLYPIDDDDYSSASGSGAYEDKGSPDLTTSQLIPRISLTSAAPEVETMTLKTQSITPTQTESPEETDKKEFEISEAEEKQDPAVKSTDVYTEKHSDNLFKRTEVLAAVIAGGVIGFLYAIFLILLLVYRMRKKDEGSYDLGERKPSSAAYQKAPTKEFYA [F159Y]

Variants of: B3
Details: with sdc4_rat Sdc4, P34901
Remark: another data set of the same source

effect of a mutation on the interaction | Variant
disrupting interaction strength | MQRAWILLTLGLMACVSAETRAELTSDKDMYLDSSSIEEASGLYPIDDDDYSSASGSGAYEDKGSPDLTTSQLIPRISLTSAAPEVETMTLKTQSITPTQTESPEETDKKEFEISEAEEKQDPAVKSTDVYTEKHSDNLFKRTEVLAAVIAGGVIGFLYAIFLILLLVYRMRKKDEGSYDLGERKPSSAAYQKAPTKEFYA [F159Y]

Variants of: B4
Details: with sdc2_rat Sdc2, P34900

effect of a mutation on the interaction | Variant
with no effect | MRRAALWLWLCALALRLQPALPQIVTANVPPEDQDGSGDDSDNFSGSGTGALPDMTLSRQTPSTWKDVWLLTATPTAPEPTSRDTEATLTSILPAGEKPEEGEPVAHVEAEPDFTARDKEKEATTRPRETTQLPVTQQASTAARATTAQASVTSHPHGDVQPGLHETLAPTAPGQPDHQPPSVEDGGTSVIKEVVEDETTNQLPAGEGSGEQDFTFETSGENTAVAGVEPDLRNQSPVDEGATGASQGLLDRKEVLGGVIAGGLVGLIFAVFLVAFMLYRMKKKDEGSYSLEEPKQANGGAYQKPTKQEEFYA [C272F]
disrupting interaction strength | MRRAALWLWLCALALRLQPALPQIVTANVPPEDQDGSGDDSDNFSGSGTGALPDMTLSRQTPSTWKDVWLLTATPTAPEPTSRDTEATLTSILPAGEKPEEGEPVAHVEAEPDFTARDKEKEATTRPRETTQLPVTQQASTAARATTAQASVTSHPHGDVQPGLHETLAPTAPGQPDHQPPSVEDGGTSVIKEVVEDETTNQLPAGEGSGEQDFTFETSGENTAVAGVEPDLRNQSPVDEGATGASQGLLDRKEVLGGVIAGGLVGLIYAVCLVAFMLYRMKKKDEGSYSLEEPKQANGGAYQKPTKQEEFYA [F269Y]
disrupting interaction strength | MRRAALWLWLCALALRLQPALPQIVTANVPPEDQDGSGDDSDNFSGSGTGALPDMTLSRQTPSTWKDVWLLTATPTAPEPTSRDTEATLTSILPAGEKPEEGEPVAHVEAEPDFTARDKEKEATTRPRETTQLPVTQQASTAARATTAQASVTSHPHGDVQPGLHETLAPTAPGQPDHQPPSVEDGGTSVIKEVVEDETTNQLPAGEGSGEQDFTFETSGENTAVAGVEPDLRNQSPVDEGATGASQGLLDRKEVLGGVIAGGLVGLIYAVFLVAFMLYRMKKKDEGSYSLEEPKQANGGAYQKPTKQEEFYA [F269Y;C272F]

Variants of: B5
Details: with sdc1_rat Sdc1, P26260

effect of a mutation on the interaction | Variant
decreasing interaction strength | MAPVCLFAPLLLLLLGGFPVAPGESIRETEVIDPQDLLEGRYFSGALPDDEDAGGLEQDSDFELSGSGDLDDTEEPRTFPEVISPLVPLDNHIPENAQPGIRVPSEPKELEENEVIPKRVPSDVGDDDVSNKVSMSSTSQGSNIFERTEVLAALIVGGVVGILYAVFLILLLVYRMKKKDEGSYDLGKKPIYKKAPTNEFYA [F164Y]

Variants of: B6
Details: with sdc1_rat Sdc1, P26260

effect of a mutation on the interaction | Variant
with no effect | MQRAWILLTLGLMACVSAETRAELTSDKDMYLDSSSIEEASGLYPIDDDDYSSASGSGAYEDKGSPDLTTSQLIPRISLTSAAPEVETMTLKTQSITPTQTESPEETDKKEFEISEAEEKQDPAVKSTDVYTEKHSDNLFKRTEVLAAVIAGGVIGFLFAIYLILLLVYRMRKKDEGSYDLGERKPSSAAYQKAPTKEFYA [F162Y]

Variants of: B7
Details: with sdc2_rat Sdc2, P34900

effect of a mutation on the interaction | Variant
decreasing interaction strength | MAPVCLFAPLLLLLLGGFPVAPGESIRETEVIDPQDLLEGRYFSGALPDDEDAGGLEQDSDFELSGSGDLDDTEEPRTFPEVISPLVPLDNHIPENAQPGIRVPSEPKELEENEVIPKRVPSDVGDDDVSNKVSMSSTSQGSNIFERTEVLAALIVGGVVGILYAVFLILLLVYRMKKKDEGSYDLGKKPIYKKAPTNEFYA [F164Y]
